Reference: the supplement of paper PMC10598134
± gives the standard deviation.

Assay: collision cross section of modified peptide (TIMS, N2, iRT-aligned); higher = larger / more extended gas-phase ion
Outline: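 On a timsTOF Pro/HT (dda-PASEF, nitrogen, ~2.4 mbar), synthetic peptide pools were analysed after a 120-min nanoflow C18 separation at 60 °C and identified in MaxQuant. Three reference ions served for 1/K0 calibration, with run-wise alignment to the median iRT peptide deviation. Collision cross section comes from the Mason-Schamp equation, using the most abundant feature per charge state averaged over 1–3 technical replicates.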

[1] = charge state: 2, modification: Crotonyl
[2] = charge state: 2, modification: Acetyl (K)
[3] = charge state: 3, modification: Acetyl (K)
[4] = charge state: 2, modification: Methyl (K)
[5] = charge state: 3, modification: Methyl (K)
[6] = charge state: 2, modification: Butyryl
[7] = charge state: 2, modification: Nitro (Y)
[8] = charge state: 2, modification: Citrullination (R)
[9] = charge state: 3, modification: Citrullination (R)
[10] = charge state: 2, modification: Propionyl
[11] = charge state: 2, modification: Glutarylation
[12] = charge state: 3, modification: Glutarylation
[13] = charge state: 2, modification: GlyGly (K)
[14] = charge state: 3, modification: GlyGly (K)
[15] = charge state: 2, modification: Malonyl
[16] = charge state: 2, modification: Biotin
[17] = charge state: 2, modification: Trimethyl (K)
[18] = charge state: 3, modification: Trimethyl (K)
[19] = charge state: 2, modification: Dimethyl (K)
[20] = charge state: 3, modification: Dimethyl (K)
[21] = charge state: 2, modification: Succinyl
[22] = charge state: 3, modification: Crotonyl
[23] = charge state: 2, modification: hydroxyisobutyryl
[24] = charge state: 3, modification: hydroxyisobutyryl
[25] = charge state: 2, modification: Formyl
[26] = charge state: 3, modification: Nitro (Y)
[27] = charge state: 3, modification: Biotin

VNVEAPDVNLEGLGGKLK [_VNVEAPDVNLEGLGGK(Crotonyl)LK_]
collision cross section [1]: 459.79 Å²

VLTANSNPSSPSAAKR [_VLTANSNPSSPSAAK(Acetyl (K))R_]
collision cross section [2]: 425 ± 2.5 Å² | collision cross section [3]: 527.55 ± 2.3 Å²

GSLEKGSPEDK [_GSLEK(Methyl (K))GSPEDK_]
collision cross section [4]: 357.31 ± 0.34 Å² | collision cross section [5]: 434.75 ± 5.3 Å²

SDSGKPYYYNSQTK [_SDSGK(Butyryl)PYYYNSQTK_]
collision cross section [6]: 426.68 ± 0.77 Å²

ALLQAKASGK [_ALLQAK(Butyryl)ASGK_]
collision cross section [6]: 352.22 ± 2.3 Å²

PASGAGAGAGAGKR [_PASGAGAGAGAGK(Butyryl)R_]
collision cross section [6]: 358.98 ± 1.3 Å² | collision cross section (charge state: 3, modification: Butyryl): 461.52 ± 2.9 Å²

DYVSQFEGSALGK [_DY(Nitro (Y))VSQFEGSALGK_]
collision cross section [7]: 387.16 ± 0.17 Å²

GRGAANDSTQFTVAGR [_GR(Citrullination (R))GAANDSTQFTVAGR_]
collision cross section [8]: 411.84 ± 0.81 Å² | collision cross section [9]: 488.59 ± 0.56 Å²

GFPGAPGLPGLKGHR [_GFP(Hydroxyproline)GAPGLPGLKGHR_]
collision cross section (charge state: 3, modification: Hydroxyproline): 478.5 ± 1.8 Å²

YGRGQLNYPLPDFSK [_YGR(Citrullination (R))GQLNYPLPDFSK_]
collision cross section [8]: 439.93 ± 0.95 Å² | collision cross section [9]: 492.79 Å²

DHLSDKESK [_DHLSDK(Propionyl)ESK_]
collision cross section [10]: 355.5 ± 0.95 Å²

LEEVTGKLQVAR [_LEEVTGK(Gluratylation)LQVAR_]
collision cross section [11]: 400.05 ± 0.12 Å² | collision cross section [12]: 468.97 Å²

FGTINIVHPKLGSYTK [_FGTINIVHPK(Gluratylation)LGSYTK_]
collision cross section [11]: 478.34 Å² | collision cross section [12]: 554.9 ± 0.14 Å²

VDIDAPDVSIEGPDAKLK [_VDIDAPDVSIEGPDAK(GlyGly (K))LK_]
collision cross section [13]: 470.72 ± 1.4 Å² | collision cross section [14]: 499.87 ± 1.9 Å²

IVSGKDYNVTANSK [_IVSGK(Malonyl)DYNVTANSK_]
collision cross section [15]: 407.96 ± 0.037 Å² | collision cross section (charge state: 3, modification: Malonyl): 465.84 ± 1.8 Å²

KFGVLSDNFK [_K(Biotin)FGVLSDNFK_]
collision cross section [16]: 394.71 ± 3.8 Å²

GDAGEPGRPGSPGK [_GDAGEPGRPGSP(Hydroxyproline)GK_]
collision cross section (charge state: 2, modification: Hydroxyproline): 357.84 ± 0.8 Å²

VGVEVPDVNIEGPEGKLK [_VGVEVPDVNIEGPEGK(Trimethyl (K))LK_]
collision cross section [17]: 479.14 ± 17 Å² | collision cross section [18]: 530.81 ± 6.1 Å²

LEQVEKELLR [_LEQVEK(Dimethyl (K))ELLR_]
collision cross section [19]: 388.36 ± 0.25 Å² | collision cross section [20]: 444.88 ± 2.1 Å²

IQNGAQGIRFIYTR [_IQNGAQGIR(Citrullination (R))FIYTR_]
collision cross section [9]: 506.23 Å²

YIEIYVQKVNPSR [_YIEIYVQK(Trimethyl (K))VNPSR_]
collision cross section [17]: 446.57 Å² | collision cross section [18]: 499.16 ± 1.6 Å²

LGNDFHTNKR [_LGNDFHTNK(Dimethyl (K))R_]
collision cross section [19]: 366.02 ± 0.57 Å² | collision cross section [20]: 412.91 ± 1.1 Å²

ALLQAKASGK [_ALLQAK(Crotonyl)ASGK_]
collision cross section [1]: 351.6 ± 1.3 Å²

AAINQKLIETGER [_AAINQK(Trimethyl (K))LIETGER_]
collision cross section [17]: 420.64 ± 0.75 Å² | collision cross section [18]: 472.14 ± 3.7 Å²

HLRGHGPQPPLR [_HLR(Citrullination (R))GHGPQPPLR_]
collision cross section [8]: 393.67 ± 4.3 Å² | collision cross section [9]: 482.78 ± 1.8 Å²

VFIGNLNTLVVKK [_VFIGNLNTLVVK(Succinyl)K_]
collision cross section [21]: 423.07 ± 0.53 Å² | collision cross section (charge state: 3, modification: Succinyl): 489.97 ± 1.6 Å²

LQAAYAGDKADDIQK [_LQAAYAGDK(Crotonyl)ADDIQK_]
collision cross section [1]: 436.53 ± 0.29 Å² | collision cross section [22]: 487.02 ± 2.8 Å²

VELCSFSGYK [_VELCSFSGY(Phospho (Y))K_]
collision cross section (charge state: 2, modification: Phospho (Y)): 372.99 ± 0.08 Å²

LQDVSGQLSSSKK [_LQDVSGQLSSSK(Trimethyl (K))K_]
collision cross section [17]: 417.06 ± 1.1 Å² | collision cross section [18]: 475.09 ± 1.5 Å²

DAEAAEATAEGALKAEK [_DAEAAEATAEGALK(hydroxyisobutyryl)AEK_]
collision cross section [23]: 435.11 ± 0.29 Å² | collision cross section [24]: 547.8 ± 2.1 Å²

VDVEVPDVSLEGPEGKLK [_VDVEVPDVSLEGPEGK(Formyl)LK_]
collision cross section [25]: 460.51 ± 1.4 Å²

DYSAPVNFISAGLKK [_DYSAPVNFISAGLK(Gluratylation)K_]
collision cross section [11]: 441.44 ± 0.95 Å² | collision cross section [12]: 535.69 ± 1.8 Å²

LEENHYNTYISK [_LEENHYNTY(Nitro (Y))ISK_]
collision cross section [7]: 425.11 ± 1.1 Å² | collision cross section [26]: 478.71 ± 0.24 Å²

VGVEVPDVNIEGPEGKLK [_VGVEVPDVNIEGPEGK(Dimethyl (K))LK_]
collision cross section [19]: 456.47 ± 2.5 Å² | collision cross section [20]: 540.33 ± 0.77 Å²

IISSIEQKEENK [_IISSIEQK(Acetyl (K))EENK_]
collision cross section [2]: 401.35 ± 0.23 Å²

SSFAYKDQNENR [_SSFAYK(Formyl)DQNENR_]
collision cross section [25]: 394.76 ± 0.75 Å²

INNFSADIKDSK [_INNFSADIK(GlyGly (K))DSK_]
collision cross section [13]: 406.34 ± 0.36 Å² | collision cross section [14]: 465 ± 2.2 Å²

SLGEPAAGEGSAKR [_SLGEPAAGEGSAK(Crotonyl)R_]
collision cross section [1]: 387.18 ± 0.89 Å² | collision cross section [22]: 487.34 ± 1.3 Å²

VNALKNLQVK [_VNALK(Trimethyl (K))NLQVK_]
collision cross section [17]: 379.91 ± 0.019 Å² | collision cross section [18]: 418.46 ± 2.4 Å²

FGYVDFESAEDLEK [_FGY(Nitro (Y))VDFESAEDLEK_]
collision cross section [7]: 424.66 Å²

FLQEFYQDDELGKK [_FLQEFYQDDELGK(Succinyl)K_]
collision cross section [21]: 450.32 ± 0.96 Å²

VFIGNLNTLVVKK [_VFIGNLNTLVVK(Methyl (K))K_]
collision cross section [4]: 423.04 ± 1.2 Å² | collision cross section [5]: 477.31 ± 4.3 Å²

GEVGAGAGPGAQAGPSAKR [_GEVGAGAGPGAQAGPSAK(Acetyl (K))R_]
collision cross section [2]: 420.33 ± 2.6 Å² | collision cross section [3]: 478.86 ± 2.4 Å²

VYPSSLSK [_VY(Nitro (Y))PSSLSK_]
collision cross section [7]: 327.32 ± 0.71 Å²

VLTANSNPSSPSAAKR [_VLTANSNPSSPSAAK(Biotin)R_]
collision cross section [16]: 443.24 ± 0.79 Å² | collision cross section [27]: 547.09 ± 3.1 Å²

SSGPGGQNVNKVNSK [_SSGPGGQNVNK(Methyl (K))VNSK_]
collision cross section [4]: 397.83 ± 2.2 Å² | collision cross section [5]: 442.38 ± 4.2 Å²

VGVEVPDVNIEGPEGKLK [_VGVEVPDVNIEGPEGK(GlyGly (K))LK_]
collision cross section [13]: 464.33 ± 1.3 Å² | collision cross section [14]: 509.72 ± 1.9 Å²

VPTTEKPTVTVNFR [_VPTTEK(GlyGly (K))PTVTVNFR_]
collision cross section [13]: 431.31 ± 0.85 Å² | collision cross section [14]: 523.98 ± 3.9 Å²

SPDEAYAIAKK [_SPDEAYAIAK(hydroxyisobutyryl)K_]
collision cross section [23]: 377.18 ± 1.4 Å² | collision cross section [24]: 453.4 ± 3.9 Å²

GEVGAGAGPGAQAGPSAKR [_GEVGAGAGPGAQAGPSAK(Biotin)R_]
collision cross section [16]: 440.5 ± 1.2 Å² | collision cross section [27]: 470.58 ± 2.6 Å²

ASAISIKLGSSK [_ASAISIK(Formyl)LGSSK_]
collision cross section [25]: 364.8 ± 0.89 Å²

LLALSGPGGGRGR [_LLALSGPGGGR(Citrullination (R))GR_]
collision cross section [8]: 366.92 ± 1 Å² | collision cross section [9]: 440.81 ± 17 Å²

ISALQGKLSK [_ISALQGK(Malonyl)LSK_]
collision cross section [15]: 349.78 ± 0.6 Å²

ALLQAKASGK [_ALLQAK(GlyGly (K))ASGK_]
collision cross section [13]: 355.61 ± 0.57 Å²

SDDESSQKDIK [_SDDESSQK(Trimethyl (K))DIK_]
collision cross section [17]: 380.2 ± 1.7 Å² | collision cross section [18]: 430.76 ± 2.7 Å²

AYGELPEHAK [_AY(Nitro (Y))GELPEHAK_]
collision cross section [7]: 361.5 ± 1.2 Å² | collision cross section [26]: 445.86 ± 1.2 Å²

YEEIVKEVSTYIK [_YEEIVK(Acetyl (K))EVSTYIK_]
collision cross section [2]: 431.89 ± 3.1 Å²

PGGEGPQCEKTTDVK [_PGGEGPQCEK(Malonyl)TTDVK_]
collision cross section [15]: 427.2 Å²

LQLEIDQKK [_LQLEIDQK(Propionyl)K_]
collision cross section [10]: 368.05 ± 0.33 Å²

LLEQKTQESQK [_LLEQK(Dimethyl (K))TQESQK_]
collision cross section [19]: 409.09 ± 1.6 Å² | collision cross section [20]: 453.46 ± 1.6 Å²

DYSAPVNFISAGLKK [_DYSAPVNFISAGLK(GlyGly (K))K_]
collision cross section [13]: 449.5 ± 1.6 Å² | collision cross section [14]: 532.12 ± 1.1 Å²

YEQEHAAIQDKLFQVAK [_YEQEHAAIQDK(Trimethyl (K))LFQVAK_]
collision cross section [18]: 561.55 ± 0.91 Å²

VNALKNLQVK [_VNALK(Succinyl)NLQVK_]
collision cross section [21]: 370.5 ± 1.8 Å²

PSVGSQSNQAGQGKR [_PSVGSQSNQAGQGK(Dimethyl (K))R_]
collision cross section [19]: 425.54 ± 3 Å² | collision cross section [20]: 470.05 ± 1.2 Å²

VFIGNLNTLVVKKK [_VFIGNLNTLVVK(hydroxyisobutyryl)KK_]
collision cross section [24]: 515.31 ± 2.1 Å²
